From article PMC3460959
Where two headings read alike, the source gives them in different places.

Assays:
[1] = target: Substance P (FAM-SP) (Homo sapiens), P20366
[2] = target: Substance P (FAM-SP) (Homo sapiens), P20366; remark: listed apart in the source

Sequence of Substance P (FAM-SP) (Homo sapiens), P20366 (P20366 whole entry, looked up): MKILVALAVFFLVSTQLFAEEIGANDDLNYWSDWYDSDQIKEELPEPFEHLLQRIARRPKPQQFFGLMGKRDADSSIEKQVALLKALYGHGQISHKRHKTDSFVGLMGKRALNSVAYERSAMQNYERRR

- Kd [1]: 34 nM
- Kd [2]: 83 nM
B1: Neurokinin 1 receptor (NK1R), P25103 (protein)
chain: MDNVLPVDSDLSPNISTNTSEPNQFVQPAWQIVLWAAAYTVIVVTSVVGNVVVMWIILAHKRMRTVTNYFLVNLAFAEASMAAFNTVVNFTYAVHNEWYYGLFYCKFHNFFPIAAVFASIYSMTAVAFDRYMAIIHPLQPRLSATATKVVICVIWVLALLLAFPQGYYSTTETMPSRVVCMIEWPEHPNKIYEKVYHICVTVLIYFLPLLVIGYAYTVVGITLWASEIPGDSSDRYHEQVSAKRKVVKMMIVVVCTFAICWLPFHIFFLLPYINPDLYLKKFIQQVYLAIMWLAMSSTMYNPIIYCCLNDRFRLGFKHAFRCCPFISAGDYEGLEMKSTRYLQTQGSVYKVSRLETTISTVVGAHEEEPEDGPKATPSSLDLTSNCSSRSDSKTMTESFSFSSNVLS
